B1: PduQ-His6 (Limosilactobacillus reuteri subsp. reuteri) (protein)
chain: MEKYSMPTRIYSGTDSLKELETLNNERILLVCDSFLPGSDTLKEIESHIKDNNKCEIFSDVVPDPPLDKIMEGVQQFLKLKPTIVIGIGGGSALDTGKGIRFFGEKLGKCKINEYIAIPTTSGTGSEVTNTAVISDTKEHRKIPILEDYLTPDCALLDPKLVMTAPKSVTAYSGMDVLTHALESLVAKDANLFTVALSEEAIDAVIKHLVECYRHGDNVDARKIVHEASNIAGTAFNIAGLGICHSIAHQLGANFHVPHGLANTMLLPYVIAYNAEHSEEALHKFAIAAKKAGIAAPGVGDRLAVKRLIAKIREMARQMNCPMTLQAFGVDPAKAEELADTVVANAKKDATFPGNPVVPSDNDLKMVYEAIIR
notes: full length 373 residues (40361 Da), His6 tag from pET21a kept, E. coli BL21(DE3), Ni-NTA purified
B2: ADH7-His6 (Limosilactobacillus reuteri subsp. reuteri) (protein)
chain: MNRQFDFLMPSVNFFGPGVIAKIGDRAKMLNMHKPLIVTTEGLSKIDNGPVKQTVASLEKAGVDYAVFTGAEPNPKIRNVQAGKKMYQDENCDSIITVGGGSAHDCGKGIGIVLTNGDDISKLAGIETLKNPLPPLMAVNTTAGTGSELTRHAVITNEKTHLKFVVVSWRNIPLVSFNDPMLMLDIPKDITAATGCDAFVQAIEPYVSVDHNPITDSQCKEAIQLIQTALPEVVANGHNIEARTKMVEAEMLAGMAFNNANLGYVHAMAHQLGGQYDAPHGVCCALLLTTVEEYNLIACPERFAELAKVMGFDTTGLTLYEAAQKSIDGMREMCRLVGIPSSIKEIGAKPEDFEMMAKNALKDGNAFSNPRKGTVEDIVKLYQKAYDGIY
notes: full length 390 residues (42181 Da), His6 tag from pET21a kept, E. coli BL21(DE3), Ni-NTA purified

Tests used:
Assay in all cases: purified protein
Assay type in all cases: biochemical, Limosilactobacillus reuteri
purified protein [1] = substrate: O=CCCO; conditions: 3-HPA reduction (standard 0.2 mM NADH), 50 mM potassium phosphate pH 7.0, 30°C, 3-HPA produced from glycerol by resting cells (equilibrates with hydrate and dimer), pH 7.0
purified protein [2] = substrate: NC(=O)c1ccc[n+]([C@@H]2O[C@H](COP(=O)(O)OP(=O)(O)OC[C@H]3O[C@@H](n4cnc5c(N)ncnc54)[C@H](O)[C@@H]3O)[C@@H](O)[C@H]2O)c1; conditions: 1,3-PDO oxidation (standard 500 mM 1,3-PDO), 50 mM Tris-HCl pH 9.0, 30°C, pH 9.0, varied: cofactor
purified protein [3] = substrate: NC(=O)C1=CN([C@@H]2O[C@H](COP(=O)(O)OP(=O)(O)OC[C@H]3O[C@@H](n4cnc5c(N)ncnc54)[C@H](O)[C@@H]3O)[C@@H](O)[C@H]2O)C=CC1; conditions: 3-HPA reduction (standard 100 mM 3-HPA), 50 mM potassium phosphate pH 7.0, 30°C, pH 7.0, varied: cofactor

Protein | Km (purified protein [1]) [µM] | Vmax (purified protein [1]) [µmol/min/mg] | kcat (purified protein [1]) [s⁻¹] | kcat/Km (purified protein [1]) [M⁻¹ s⁻¹] | Km (purified protein [2]) [µM] | Vmax (purified protein [2]) [µmol/min/mg] | kcat (purified protein [2]) [s⁻¹] | kcat/Km (purified protein [2]) [M⁻¹ s⁻¹] | Km (purified protein [3]) [µM] | Vmax (purified protein [3]) [µmol/min/mg] | kcat (purified protein [3]) [s⁻¹] | kcat/Km (purified protein [3]) [M⁻¹ s⁻¹] | Km (purified protein [3]; error exceeds value) [µM] | Vmax (purified protein [3]; error exceeds value) [µmol/min/mg] | kcat (purified protein [3]; error exceeds value) [s⁻¹] | kcat/Km (purified protein [3]; error exceeds value) [M⁻¹ s⁻¹]
B1 | 14500 ± 1700 | 14.8 | 9.9 ± 0.6 | 640 | 800 ± 100 | 3.9 | 2.6 ± 0.1 | 3490 | 40 ± 10 | 12.6 | 8.5 ± 0.5 | 237000 |  |  |  | 
B2 | 9900 ± 1100 | 29.3 | 13.2 ± 3 | 1330 | 1200 ± 100 | 4.1 | 3.2 ± 0.9 | 2670 |  |  |  |  | 40 ± 120 | 33 | 11.3 ± 1.9 | 282000

Reference: article PMC5193401, “Redox Balance in Lactobacillus reuteri DSM20016: Roles of Iron-Dependent Alcohol Dehydrogenases in Glucose/ Glycerol Metabolism” (PLoS ONE, 2016)
